Results taken from US5591825A, “Interleukin 4 signal transducers” (Tularik, Inc., priority 1994, dated 1997).
Non-standard residues stand in square brackets, D forms with d. pY = N[C@@H](Cc1ccc(OP(=O)(O)O)cc1)C(=O)O

Target: T1, IL-4 Stat (Homo sapiens, UniProt P42226)
T1 construct: Samples of nuclear extract prepared from IL-4 induced Thp-1 cells were incubated with individual phosphopeptides; endogenous in cells; host or cells: Thp-1 cells, IL-4 induced, nuclear extract
T1 sequence (P42226 1-847): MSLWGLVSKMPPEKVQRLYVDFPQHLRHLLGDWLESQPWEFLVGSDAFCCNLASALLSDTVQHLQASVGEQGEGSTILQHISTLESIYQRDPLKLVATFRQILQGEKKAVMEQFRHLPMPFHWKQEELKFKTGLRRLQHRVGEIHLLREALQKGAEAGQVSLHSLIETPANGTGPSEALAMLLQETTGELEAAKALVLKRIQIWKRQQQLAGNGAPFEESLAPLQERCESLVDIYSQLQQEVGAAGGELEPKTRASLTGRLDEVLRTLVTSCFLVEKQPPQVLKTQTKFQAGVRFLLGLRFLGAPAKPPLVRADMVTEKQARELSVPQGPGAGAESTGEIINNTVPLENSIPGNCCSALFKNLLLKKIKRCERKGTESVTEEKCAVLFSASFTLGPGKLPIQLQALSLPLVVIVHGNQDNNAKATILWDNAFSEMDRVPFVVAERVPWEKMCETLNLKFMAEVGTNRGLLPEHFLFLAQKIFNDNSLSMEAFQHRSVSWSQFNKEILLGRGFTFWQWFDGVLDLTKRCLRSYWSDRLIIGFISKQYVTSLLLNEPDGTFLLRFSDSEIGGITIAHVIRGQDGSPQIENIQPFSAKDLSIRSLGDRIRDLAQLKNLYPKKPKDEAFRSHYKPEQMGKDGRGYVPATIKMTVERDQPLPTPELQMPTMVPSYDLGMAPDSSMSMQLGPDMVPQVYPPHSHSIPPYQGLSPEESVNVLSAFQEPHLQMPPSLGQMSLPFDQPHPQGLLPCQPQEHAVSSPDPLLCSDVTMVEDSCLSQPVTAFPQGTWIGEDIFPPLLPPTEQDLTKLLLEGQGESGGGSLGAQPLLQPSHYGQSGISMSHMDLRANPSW
Experiment: Gel mobility shift assay of IL-4 Stat DNA binding in nuclear extract of IL-4 induced Thp-1 cells
Assay type: biochemical
Conditions: nuclear extract from IL-4 induced Thp-1 cells

In the case of “NH2-GPP GEA GYKA FSS LL(SEQ ID NO:10)-COOH (H-GPPGEAG[pY]KAFSSLL-OH; SMILES CC(C)C[C@H](NC(=O)[C@H](CC(C)C)NC(=O)[C@H](CO)NC(=O)[C@H](CO)NC(=O)[C@H](Cc1ccccc1)NC(=O)[C@H](C)NC(=O)[C@H](CCCCN)NC(=O)[C@H](Cc1ccc(OP(=O)(O)O)cc1)NC(=O)CNC(=O)[C@H](C)NC(=O)[C@H](CCC(=O)O)NC(=O)CNC(=O)[C@@H]1CCCN1C(=O)[C@@H]1CCCN1C(=O)CN)C(=O)O)”, the “inhibitory effect on DNA binding by activated IL-4 Stat” value is reported as “inhibitory”.

With “NH2-ASS GEE GYKP FQD LI(SEQ ID NO:11)-COOH (H-ASSGEEG[pY]KPFQDLI-OH; SMILES CC[C@H](C)[C@H](NC(=O)[C@H](CC(C)C)NC(=O)[C@H](CC(=O)O)NC(=O)[C@H](CCC(N)=O)NC(=O)[C@H](Cc1ccccc1)NC(=O)[C@@H]1CCCN1C(=O)[C@H](CCCCN)NC(=O)[C@H](Cc1ccc(OP(=O)(O)O)cc1)NC(=O)CNC(=O)[C@H](CCC(=O)O)NC(=O)[C@H](CCC(=O)O)NC(=O)CNC(=O)[C@H](CO)NC(=O)[C@H](CO)NC(=O)[C@H](C)N)C(=O)O)” the “inhibitory effect on DNA binding by activated IL-4 Stat” value was “inhibitory”.
